Patent US20240279325A1 (Chugai, published 2024)
Positions count from the first letter of the chain named. Numbers in names are those of the source. One block for each binder: values may come before it.

Columns and labels:
[1] = target: T1, FcγRIIb extracellular domain with C-terminal His tag (human, UniProt P31994 43-217); test: SPR; KD for FcγRIIaR divided by KD for FcγRIIb
T1 construct: extracellular domain
T1 sequence (looked up): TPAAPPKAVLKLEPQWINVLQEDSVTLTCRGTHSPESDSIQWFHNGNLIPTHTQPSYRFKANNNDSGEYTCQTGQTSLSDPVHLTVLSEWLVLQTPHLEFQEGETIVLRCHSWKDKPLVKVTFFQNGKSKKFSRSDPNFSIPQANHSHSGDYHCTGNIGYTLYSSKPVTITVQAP

[2] = target: T1, FcγRIIb extracellular domain with …; test: SPR; KD for FcγRIIaH divided by KD for FcγRIIb
[3] = target: T1, FcγRIIb extracellular domain with …; test: SPR; KD of IL6R-B3/IL6R-L divided by KD of the variant
[4] = target: T2, FcγRIIa type R (allotype R131) extracellular domain with C-terminal His tag (human, UniProt P12318 34-217); test: as above
T2 construct: extracellular domain; also called FcγRIIaR; FcγRIIa R type
T2 sequence (looked up): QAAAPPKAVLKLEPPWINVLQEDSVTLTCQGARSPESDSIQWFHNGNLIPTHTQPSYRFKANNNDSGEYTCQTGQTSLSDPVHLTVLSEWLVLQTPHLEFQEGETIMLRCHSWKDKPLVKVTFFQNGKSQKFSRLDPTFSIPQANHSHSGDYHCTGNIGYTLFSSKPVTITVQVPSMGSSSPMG

[5] = target: T3, human FcγRIIIa type V (allotype V158) extracellular domain with C-terminal His tag (human, UniProt P08637 17-208); test: SPR (Biacore), antibody captured, FcγR analyte
T3 construct: also called FcγRIIIaV
T3 sequence (P08637 other isoform, or with tags, fused parts or gaps): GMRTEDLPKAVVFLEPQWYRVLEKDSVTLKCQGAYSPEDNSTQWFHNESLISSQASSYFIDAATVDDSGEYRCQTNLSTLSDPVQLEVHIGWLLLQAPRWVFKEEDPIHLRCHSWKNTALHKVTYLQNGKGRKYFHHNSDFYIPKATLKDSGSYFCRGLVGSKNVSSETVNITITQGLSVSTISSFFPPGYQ

- KD(IIaR)/KD(IIb) [1]: 29.9
- KD(IIaH)/KD(IIb) [2]: 1030
- KD(IIb) OF PARENT POLYPEPTIDE/KD(IIb) OF ALTERED POLYPEPTIDE [3]: 128
- KD(IIaR) OF PARENT POLYPEPTIDE/KD(IIaR) OF ALTERED POLYPEPTIDE [4]: 1.5
B1: IL6R-BP500/IL6R-L (antibody, human IgG1, kappa, name in EU numbering)
heavy: QVQLQESGPGLVKPSETLSLTCAVSGHSISHDHAWSWVRQPPGEGLEWIGFISYSGITNYNPSLQGRVTISRDNSKNTLYLQMNSLRAEDTAVYYCARSLARTTAMDYWGEGTLVTVSSASTKGPSVFPLAPSSKSTSGGTAALGCLVKDYFPEPVTVSWNSGALTSGVHTFPAVLQSSGLYSLSSVVTVPSSSLGTQTYICNVNHKPSNTKVDKKVEPKSCDKTHTCPPCPAPELLGDDSVFLFPPKPKDTLMISRTPEVTCVVIDVAEEDGEVKFNWYVDGVEVHNAKTKPREEQDNSTYRVVSVLTVLHQDWLNGKEYKCKVSNKALPAPIEKTISKAKGQPREPQVYTLPPSRDELTKNQVSLTCLVKGFYPSDIAVEWESNGQPENNYKTTPPVLDSDGSFFLYSKLTVDKSRWQQGNVFSCSVMHEALHNHYTQESLSLSP
light: not shown
notes: copies: 2 + 2

- Kd [5]: 56 µM
B2: IL6R-BP126/IL6R-L (antibody, human IgG1, kappa, name in EU numbering)
heavy: B1 heavy with D239G, I266V, A269S, E270H, G273P, D298Y, K328L
light: not shown
notes: Alterations introduced into IL6R-B3; also called P238D/K326L; copies: 2 + 2

- Kd [5]: 82 µM
B3: IL6R-BP102/IL6R-L (antibody, human IgG1, kappa, name in EU numbering)
heavy: B1 heavy with D239G, I266V, A269Q, E270H, G273P, D298Y
light: not shown
notes: Alterations introduced into IL6R-B3; also called P238D/S267Q; copies: 2 + 2

- KD(IIaR)/KD(IIb) [1]: 33.8
- KD(IIaH)/KD(IIb) [2]: 730
- KD(IIb) OF PARENT POLYPEPTIDE/KD(IIb) OF ALTERED POLYPEPTIDE [3]: 2700
- KD(IIaR) OF PARENT POLYPEPTIDE/KD(IIaR) OF ALTERED POLYPEPTIDE [4]: 28.3
B4: IL6R-BP487/IL6R-L (antibody, human IgG1, kappa, name in EU numbering)
heavy: B1 heavy with E235D, D298Y, A332R, P398M
light: not shown
notes: copies: 2 + 2

- KD(IIaR)/KD(IIb) [1]: 21
- KD(IIaH)/KD(IIb) [2]: 236
- KD(IIb) OF PARENT POLYPEPTIDE/KD(IIb) OF ALTERED POLYPEPTIDE [3]: 764
- KD(IIaR) OF PARENT POLYPEPTIDE/KD(IIaR) OF ALTERED POLYPEPTIDE [4]: 12.9
B5: IL6R-BP497/IL6R-L (antibody, human IgG1, kappa, name in EU numbering)
heavy: B1 heavy with E235D, D298Y, A329G, A332R
light: not shown
notes: copies: 2 + 2

- Kd [5]: 57 µM
B6: IL6R-2B171/IL6R-L (antibody, human IgG1, kappa, name in EU numbering)
heavy: B1 heavy with D239G, I266V, A269S, E270H, G273P, D298Y, V325L
light: not shown
notes: Alterations introduced into IL6R-B3; also called P238D/V323L; copies: 2 + 2

- KD(IIaR)/KD(IIb) [1]: 16.1
- KD(IIaH)/KD(IIb) [2]: 268
- KD(IIb) OF PARENT POLYPEPTIDE/KD(IIb) OF ALTERED POLYPEPTIDE [3]: 55.5
- KD(IIaR) OF PARENT POLYPEPTIDE/KD(IIaR) OF ALTERED POLYPEPTIDE [4]: 1.2
B7: IL6R-BP479/IL6R-L (antibody, human IgG1, kappa, name in EU numbering)
heavy: B1 heavy with E235D, V268L, D298Y
light: not shown
notes: copies: 2 + 2

- Kd [5]: 72 µM
B8: IL6R-2B128/IL6R-L (antibody, human IgG1, kappa, name in EU numbering)
heavy: B1 heavy with D239G, I266V, A269S, E270H, G273P
light: not shown
notes: Alterations introduced into IL6R-B3; also called P238D/Y296D; copies: 2 + 2

- KD(IIaR)/KD(IIb) [1]: 19.6
- KD(IIaH)/KD(IIb) [2]: 637
- KD(IIb) OF PARENT POLYPEPTIDE/KD(IIb) OF ALTERED POLYPEPTIDE [3]: 27.4
- KD(IIaR) OF PARENT POLYPEPTIDE/KD(IIaR) OF ALTERED POLYPEPTIDE [4]: 0.5
B9: IL6R-BP269/IL6R-L (antibody, human IgG1, kappa, name in EU numbering)
heavy: B1 heavy with I266V, A269S
light: not shown
notes: copies: 2 + 2

- Kd [5]: 67 µM
B10: IL6R-BP117/IL6R-L (antibody, human IgG1, kappa, name in EU numbering)
heavy: B1 heavy with D239G, I266V, A269S, E270H, G273P, D298Y, K328D
light: not shown
notes: Alterations introduced into IL6R-B3; also called P238D/K326D; copies: 2 + 2

- Kd [5]: 75 µM
B11: IL6R-2B169/IL6R-L (antibody, human IgG1, kappa, name in EU numbering)
heavy: B1 heavy with D239G, I266V, A269S, E270H, G273P, D298Y, V325I
light: not shown
notes: Alterations introduced into IL6R-B3; also called P238D/V323I; copies: 2 + 2

- KD(IIaR)/KD(IIb) [1]: 42.8
- KD(IIaH)/KD(IIb) [2]: 870
- KD(IIb) OF PARENT POLYPEPTIDE/KD(IIb) OF ALTERED POLYPEPTIDE [3]: 3100
- KD(IIaR) OF PARENT POLYPEPTIDE/KD(IIaR) OF ALTERED POLYPEPTIDE [4]: 25.7
B12: IL6R-BP489/IL6R-L (antibody, human IgG1, kappa, name in EU numbering)
heavy: B1 heavy with E235D, A332R, P398M
light: not shown
notes: copies: 2 + 2

- Kd [5]: 52 µM
B13: IL6R-BP121/IL6R-L (antibody, human IgG1, kappa, name in EU numbering)
heavy: B1 heavy with D239G, I266V, A269S, E270H, G273P, D298Y, K328Q
light: not shown
notes: Alterations introduced into IL6R-B3; also called P238D/K326Q; copies: 2 + 2

- Kd [5]: 64 µM
B14: IL6R-BP110/IL6R-L (antibody, human IgG1, kappa, name in EU numbering)
heavy: B1 heavy with D239G, I266V, A269S, E270N, G273P, D298Y
light: not shown
notes: Alterations introduced into IL6R-B3; also called P238D/H268N; copies: 2 + 2

- Kd [5]: 72 µM
B15: IL6R-BP116/IL6R-L (antibody, human IgG1, kappa, name in EU numbering)
heavy: B1 heavy with D239G, I266V, A269S, E270H, G273P, D298Y, K328T
light: not shown
notes: Alterations introduced into IL6R-B3; also called P238D/K326T; copies: 2 + 2

- Kd [5]: 48 µM
B16: IL6R-2B172/IL6R-L (antibody, human IgG1, kappa, name in EU numbering)
heavy: B1 heavy with D239G, I266V, A269S, E270H, G273P, D298Y, V325M
light: not shown
notes: Alterations introduced into IL6R-B3; also called P238D/V323M; copies: 2 + 2

- KD(IIaR)/KD(IIb) [1]: 38.8
- KD(IIaH)/KD(IIb) [2]: 724
- KD(IIb) OF PARENT POLYPEPTIDE/KD(IIb) OF ALTERED POLYPEPTIDE [3]: 1020
- KD(IIaR) OF PARENT POLYPEPTIDE/KD(IIaR) OF ALTERED POLYPEPTIDE [4]: 9.3
B17: IL6R-BP491/IL6R-L (antibody, human IgG1, kappa, name in EU numbering)
heavy: B1 heavy with A332R
light: not shown
notes: also called IL6R-491/IL6R-L; copies: 2 + 2

- KD(IIaR)/KD(IIb) [1]: 17
- KD(IIaH)/KD(IIb) [2]: 375
- KD(IIb) OF PARENT POLYPEPTIDE/KD(IIb) OF ALTERED POLYPEPTIDE [3]: 25.8
- KD(IIaR) OF PARENT POLYPEPTIDE/KD(IIaR) OF ALTERED POLYPEPTIDE [4]: 0.5
B18: IL6R-BP262/IL6R-L (antibody, human IgG1, kappa, name in EU numbering)
heavy: B1 heavy with I266V, A269S, D298Y
light: not shown
notes: copies: 2 + 2

- KD(IIaR)/KD(IIb) [1]: 17.1
- KD(IIaH)/KD(IIb) [2]: 241
- KD(IIb) OF PARENT POLYPEPTIDE/KD(IIb) OF ALTERED POLYPEPTIDE [3]: 67.3
- KD(IIaR) OF PARENT POLYPEPTIDE/KD(IIaR) OF ALTERED POLYPEPTIDE [4]: 1.4
B19: IL6R-BP484/IL6R-L (antibody, human IgG1, kappa, name in EU numbering)
heavy: B1 heavy with E235D, I266V, E271D, D298Y
light: not shown
notes: copies: 2 + 2

- KD(IIaR)/KD(IIb) [1]: 38.8
- KD(IIaH)/KD(IIb) [2]: 678
- KD(IIb) OF PARENT POLYPEPTIDE/KD(IIb) OF ALTERED POLYPEPTIDE [3]: 131
- KD(IIaR) OF PARENT POLYPEPTIDE/KD(IIaR) OF ALTERED POLYPEPTIDE [4]: 1.2
B20: IL6R-BP492/IL6R-L (antibody, human IgG1, kappa, name in EU numbering)
heavy: B1 heavy with D239G, D298Y
light: not shown
notes: copies: 2 + 2
